Reference: the supplement of paper PMC10065799, “High-throughput profiling of sequence recognition by tyrosine kinases and SH2 domains using bacterial peptide display” (eLife, 2023)

Key:
AncSZ = assay: phosphorylation enrichment, bacterial display (enrichment ratio); higher = better substrate or ligand; peptides without Tyr show the background
EPHB1 = EPHB1 (UniProt P54762); assay: as above
EPHB2 = EPHB2 (UniProt P29323); assay: as above
FGFR1 = FGFR1 (UniProt P11362); assay: as above
FGFR3 = FGFR3 (UniProt P22607); assay: as above
Fer (mouse) = assay: as above
Fes = Fes (UniProt P07332); assay: as above
Fyn = Fyn (UniProt P06241); assay: as above
Hck = Hck (UniProt P08631); assay: as above
Jak2 = Jak2 (UniProt O60674); assay: as above
MERTK = MERTK (UniProt Q12866); assay: as above
c-Abl (mouse) = assay: as above
c-Src = assay: as above
Grb2 SH2 = Grb2 SH2 (UniProt P62993); assay: SH2 binding enrichment of the phosphorylated peptide, bacterial display (enrichment ratio); higher = better substrate or ligand; peptides without Tyr show the background
SHP2-C SH2 = assay: as above
c-Src SH2 = assay: as above
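Throughout, for SH2 binding enrichment of the phosphorylated peptide, bacterial display: peptide library displayed on the E. coli surface as eCPX fusions, selected cells deep-sequenced, score is each peptide's frequency after selection divided by its frequency in the input.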
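Throughout, for phosphorylation enrichment, bacterial display: 11-residue human phosphosite peptides and single-mutation variants displayed on the E. coli surface, counted by deep sequencing, each peptide's frequency after selection divided by its frequency in the unselected input library; frequency after pTyr selection over input frequency; kinase dosed for 20-30% of maximal phosphorylation in three min.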

Fyn, sequence (P06241 whole entry, looked up): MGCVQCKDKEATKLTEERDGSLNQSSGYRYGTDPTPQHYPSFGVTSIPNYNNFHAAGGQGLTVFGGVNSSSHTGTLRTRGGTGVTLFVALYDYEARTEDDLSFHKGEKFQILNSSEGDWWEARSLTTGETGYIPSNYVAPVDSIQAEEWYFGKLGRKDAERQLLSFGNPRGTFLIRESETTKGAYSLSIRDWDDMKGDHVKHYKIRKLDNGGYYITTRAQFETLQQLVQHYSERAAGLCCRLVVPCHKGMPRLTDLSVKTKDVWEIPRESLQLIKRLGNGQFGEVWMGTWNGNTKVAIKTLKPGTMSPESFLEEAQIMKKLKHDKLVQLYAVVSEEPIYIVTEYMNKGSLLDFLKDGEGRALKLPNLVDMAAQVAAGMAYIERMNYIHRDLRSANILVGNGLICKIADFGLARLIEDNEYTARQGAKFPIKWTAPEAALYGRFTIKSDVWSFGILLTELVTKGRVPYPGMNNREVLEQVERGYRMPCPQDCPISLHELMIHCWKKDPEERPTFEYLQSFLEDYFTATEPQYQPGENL
EPHB1, sequence (P54762 whole entry, looked up): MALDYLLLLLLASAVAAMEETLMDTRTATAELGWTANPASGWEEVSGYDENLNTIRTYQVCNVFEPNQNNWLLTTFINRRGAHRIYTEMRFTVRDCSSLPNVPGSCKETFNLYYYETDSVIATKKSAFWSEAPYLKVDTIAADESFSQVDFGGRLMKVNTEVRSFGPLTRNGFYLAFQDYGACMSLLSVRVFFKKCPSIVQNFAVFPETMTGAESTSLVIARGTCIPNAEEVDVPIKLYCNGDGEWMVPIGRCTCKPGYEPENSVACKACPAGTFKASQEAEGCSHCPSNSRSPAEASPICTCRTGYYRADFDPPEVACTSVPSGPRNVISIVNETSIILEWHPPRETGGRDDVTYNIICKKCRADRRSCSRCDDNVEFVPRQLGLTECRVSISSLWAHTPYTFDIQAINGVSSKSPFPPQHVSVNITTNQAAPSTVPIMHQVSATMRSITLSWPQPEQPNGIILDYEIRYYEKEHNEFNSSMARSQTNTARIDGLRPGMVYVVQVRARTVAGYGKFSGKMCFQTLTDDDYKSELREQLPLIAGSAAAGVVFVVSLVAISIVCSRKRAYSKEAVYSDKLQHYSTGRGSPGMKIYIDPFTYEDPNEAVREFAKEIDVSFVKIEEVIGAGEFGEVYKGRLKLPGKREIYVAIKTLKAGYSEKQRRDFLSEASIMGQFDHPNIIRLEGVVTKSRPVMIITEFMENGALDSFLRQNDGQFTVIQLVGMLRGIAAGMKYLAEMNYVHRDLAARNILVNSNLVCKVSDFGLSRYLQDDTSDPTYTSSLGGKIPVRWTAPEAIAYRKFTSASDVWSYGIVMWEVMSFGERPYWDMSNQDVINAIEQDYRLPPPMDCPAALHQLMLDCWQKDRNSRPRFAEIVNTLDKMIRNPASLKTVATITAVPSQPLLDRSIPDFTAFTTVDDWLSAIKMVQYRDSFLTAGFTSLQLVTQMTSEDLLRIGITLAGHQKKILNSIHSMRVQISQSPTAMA
EPHB2, sequence (P29323 whole entry, looked up): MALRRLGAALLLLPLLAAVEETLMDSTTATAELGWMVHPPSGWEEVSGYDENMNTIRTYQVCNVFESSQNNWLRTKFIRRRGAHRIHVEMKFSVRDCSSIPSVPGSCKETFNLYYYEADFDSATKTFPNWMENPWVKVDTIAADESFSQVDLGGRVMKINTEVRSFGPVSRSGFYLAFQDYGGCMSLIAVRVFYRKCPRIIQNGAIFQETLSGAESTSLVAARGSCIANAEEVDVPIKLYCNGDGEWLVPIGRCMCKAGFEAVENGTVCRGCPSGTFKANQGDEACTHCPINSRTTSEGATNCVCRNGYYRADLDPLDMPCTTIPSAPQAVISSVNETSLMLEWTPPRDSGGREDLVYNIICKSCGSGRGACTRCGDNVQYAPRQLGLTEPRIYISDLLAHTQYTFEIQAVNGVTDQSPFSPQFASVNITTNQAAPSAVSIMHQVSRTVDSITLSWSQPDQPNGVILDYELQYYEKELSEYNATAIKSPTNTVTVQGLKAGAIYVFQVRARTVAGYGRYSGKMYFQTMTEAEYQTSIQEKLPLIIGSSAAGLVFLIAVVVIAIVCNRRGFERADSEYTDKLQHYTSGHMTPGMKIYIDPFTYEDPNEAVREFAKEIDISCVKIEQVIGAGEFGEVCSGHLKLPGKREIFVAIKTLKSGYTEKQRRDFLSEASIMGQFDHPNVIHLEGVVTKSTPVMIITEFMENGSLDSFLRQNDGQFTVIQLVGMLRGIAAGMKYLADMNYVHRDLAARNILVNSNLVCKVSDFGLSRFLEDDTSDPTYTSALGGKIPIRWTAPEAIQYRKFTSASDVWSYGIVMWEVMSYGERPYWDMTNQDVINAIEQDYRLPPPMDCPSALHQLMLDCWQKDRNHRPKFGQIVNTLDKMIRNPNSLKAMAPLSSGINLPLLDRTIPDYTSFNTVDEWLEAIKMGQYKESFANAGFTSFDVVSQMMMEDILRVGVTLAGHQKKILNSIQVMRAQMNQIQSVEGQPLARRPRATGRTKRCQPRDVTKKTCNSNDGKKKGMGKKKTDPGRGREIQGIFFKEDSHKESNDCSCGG
MERTK, sequence (Q12866 whole entry, looked up): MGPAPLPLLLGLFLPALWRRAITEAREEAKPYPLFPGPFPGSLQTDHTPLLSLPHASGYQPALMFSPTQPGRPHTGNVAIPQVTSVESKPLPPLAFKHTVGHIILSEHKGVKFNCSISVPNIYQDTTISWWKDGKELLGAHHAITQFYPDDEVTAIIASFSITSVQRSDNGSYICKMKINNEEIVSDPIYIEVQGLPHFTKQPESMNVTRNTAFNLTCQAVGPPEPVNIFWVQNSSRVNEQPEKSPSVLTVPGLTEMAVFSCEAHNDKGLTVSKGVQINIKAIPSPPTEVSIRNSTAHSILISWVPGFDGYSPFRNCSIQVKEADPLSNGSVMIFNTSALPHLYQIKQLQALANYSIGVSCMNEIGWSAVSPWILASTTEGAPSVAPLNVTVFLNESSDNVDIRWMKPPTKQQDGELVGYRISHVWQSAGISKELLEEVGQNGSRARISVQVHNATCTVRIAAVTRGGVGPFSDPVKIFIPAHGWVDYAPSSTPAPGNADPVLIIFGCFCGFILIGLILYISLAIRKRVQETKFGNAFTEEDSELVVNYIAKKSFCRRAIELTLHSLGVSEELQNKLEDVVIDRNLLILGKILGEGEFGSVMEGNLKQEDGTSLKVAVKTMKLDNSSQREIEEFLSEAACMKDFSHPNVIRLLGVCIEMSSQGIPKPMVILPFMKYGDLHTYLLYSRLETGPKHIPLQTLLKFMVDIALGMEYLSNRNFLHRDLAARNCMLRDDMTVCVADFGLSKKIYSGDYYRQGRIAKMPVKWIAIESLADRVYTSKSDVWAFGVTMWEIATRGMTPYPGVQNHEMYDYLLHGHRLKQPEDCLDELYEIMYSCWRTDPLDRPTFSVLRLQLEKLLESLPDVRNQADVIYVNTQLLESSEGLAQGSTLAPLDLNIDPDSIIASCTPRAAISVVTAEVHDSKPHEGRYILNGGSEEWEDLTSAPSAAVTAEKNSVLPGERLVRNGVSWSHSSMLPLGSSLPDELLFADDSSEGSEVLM
Fes, sequence (P07332 whole entry, looked up): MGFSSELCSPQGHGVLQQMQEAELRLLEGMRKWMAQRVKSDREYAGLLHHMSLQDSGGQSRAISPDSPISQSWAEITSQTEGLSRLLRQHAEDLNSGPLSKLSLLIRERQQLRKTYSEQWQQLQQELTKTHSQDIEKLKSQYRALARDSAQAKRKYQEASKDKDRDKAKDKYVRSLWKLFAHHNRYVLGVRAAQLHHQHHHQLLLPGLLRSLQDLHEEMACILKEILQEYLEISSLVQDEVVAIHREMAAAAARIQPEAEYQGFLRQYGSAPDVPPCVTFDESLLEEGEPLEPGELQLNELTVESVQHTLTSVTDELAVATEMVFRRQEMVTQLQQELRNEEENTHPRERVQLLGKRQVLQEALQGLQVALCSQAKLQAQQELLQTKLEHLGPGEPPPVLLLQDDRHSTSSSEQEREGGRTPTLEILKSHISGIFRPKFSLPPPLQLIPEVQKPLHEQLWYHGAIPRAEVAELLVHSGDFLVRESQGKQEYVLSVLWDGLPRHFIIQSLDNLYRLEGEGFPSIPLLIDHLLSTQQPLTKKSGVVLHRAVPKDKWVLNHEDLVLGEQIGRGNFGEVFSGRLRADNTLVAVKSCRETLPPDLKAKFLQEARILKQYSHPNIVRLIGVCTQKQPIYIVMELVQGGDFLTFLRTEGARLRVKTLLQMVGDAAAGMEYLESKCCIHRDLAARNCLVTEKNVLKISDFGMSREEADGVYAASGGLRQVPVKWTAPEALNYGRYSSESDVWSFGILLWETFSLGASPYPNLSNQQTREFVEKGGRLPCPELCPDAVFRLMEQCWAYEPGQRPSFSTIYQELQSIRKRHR
Hck, sequence (P08631 whole entry, looked up): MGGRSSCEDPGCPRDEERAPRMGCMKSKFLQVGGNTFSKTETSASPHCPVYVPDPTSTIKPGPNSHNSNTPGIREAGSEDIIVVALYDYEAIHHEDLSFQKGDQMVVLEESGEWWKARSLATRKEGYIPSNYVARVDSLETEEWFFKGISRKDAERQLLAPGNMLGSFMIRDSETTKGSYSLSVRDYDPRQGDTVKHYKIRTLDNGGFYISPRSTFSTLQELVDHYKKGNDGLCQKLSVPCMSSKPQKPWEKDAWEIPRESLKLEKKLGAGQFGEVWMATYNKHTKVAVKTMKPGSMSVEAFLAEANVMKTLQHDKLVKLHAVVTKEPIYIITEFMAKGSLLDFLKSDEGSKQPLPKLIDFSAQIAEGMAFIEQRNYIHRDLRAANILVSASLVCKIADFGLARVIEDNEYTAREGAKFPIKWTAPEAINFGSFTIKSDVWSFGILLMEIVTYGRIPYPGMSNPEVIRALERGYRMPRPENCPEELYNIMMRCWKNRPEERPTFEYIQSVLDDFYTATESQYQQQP

Sequence	phosphorylation enrichment (AncSZ)	phosphorylation enrichment (EPHB1)	phosphorylation enrichment (EPHB2)	phosphorylation enrichment (FGFR1)	phosphorylation enrichment (FGFR3)	phosphorylation enrichment (Fer (mouse))	phosphorylation enrichment (Fes)	phosphorylation enrichment (Fyn)	phosphorylation enrichment (Hck)	phosphorylation enrichment (Jak2)	phosphorylation enrichment (MERTK)	phosphorylation enrichment (c-Abl (mouse))	phosphorylation enrichment (c-Src)	SH2 binding enrichment (Grb2 SH2)	SH2 binding enrichment (SHP2-C SH2)	SH2 binding enrichment (c-Src SH2)
EQKKYYNAMKN [SCN5A_Y1495_K1500N]	0.507	0.388	0.335	0.336	0.382	0.354	0.536	0.292	0.405	0.489	0.356	0.489	0.359	0.664	0.809	0.431
QLFGAYLRIHA [BSCL2_Y213_YF]	1.49	1.17	0.915	0.928	2.28	0.837	2.12	0.784	1.02	1.37	0.599	0.744	0.559	1.28	0.952	0.972
KPLMPYMRYSR [SMARCE1_Y73]	0.787	0.353	0.449	0.449	0.431	0.384	0.761	0.432	0.435	0.626	0.467	0.635	0.52	0.78	0.609	0.402
IEEGTYGVVYR [CDK11B_Y449]	1.33	4.1	10.8	0.509	0.702	7.46	1.01	8.95	7.29	0.902	4	1.3	5.65	0.834	0.668	0.451
HILRVYSGVLP [PCNX4_Y999_G1000S]	0.968	0.841	0.651	0.671	1.12	0.612	1.22	1.1	1.15	0.867	0.576	0.872	0.745	1.1	1.26	1.44
DYDHSYYFIAT [ESD_Y262_G257D]	2.9	5.16	3.27	11.7	9.9	1.49	1.13	1.48	2.24	7.22	3.77	0.877	1.81	0.684	0.589	0.456
KFEDVYVGICL [B3GALNT1_Y269]	1.37	0.857	0.715	1.23	1.24	2.52	1.33	3.06	1.99	1.16	0.592	1.02	2.92	0.647	0.41	0.458
LKLWDYRRGRC [WDR5B_Y239_S240R]	0.871	0.664	0.857	0.681	0.699	0.605	0.757	0.604	0.541	0.683	0.708	0.728	0.672	0.705	0.399	0.415
VVTFSYKPPGN [RBL2_Y544]	0.634	0.455	0.476	0.592	0.519	0.367	0.696	0.42	0.429	0.911	0.431	0.673	0.423	0.979	0.7	0.711
QYNIQYSSSAA [ERBB2IP_Y981]	0.913	0.335	0.583	0.693	0.648	0.606	0.964	0.702	0.47	0.68	0.452	0.408	0.749	0.978	0.679	0.59
FEREQYADRTR [RBM4_Y355_A359T_YF]	0.625	0.398	0.478	0.46	0.429	0.436	0.622	0.412	0.459	0.582	0.426	0.588	0.419	0.859	0.694	0.539
IDSTPYGQWFE [RPS8_Y109_R110G_YF]	1.27	0.621	0.722	0.713	0.89	0.712	1.18	3.54	1.52	0.998	0.473	0.657	3.56	0.821	0.697	0.561
FAKTQYPDIFA [CRX_Y63_V66I_YF]	0.667	0.426	0.373	0.378	0.528	0.517	0.922	0.434	0.387	0.483	0.489	0.542	0.415	0.849	0.529	0.456
RFLRGYRQHAF [HLA-A_Y137_D140H_YF]	0.606	0.64	0.599	0.564	0.701	0.598	1.34	0.648	0.581	0.933	0.706	1.02	0.805	0.636	0.284	0.495
PLAVPYLDKPP [JMJD7_Y31]	0.825	0.355	0.608	0.504	0.769	0.614	1.06	0.46	0.711	0.742	0.614	0.658	0.549	0.867	1.1	0.398
GRPMDYHVSIT [OTOF_Y254_Q255H]	0.732	0.532	0.453	0.453	0.577	0.559	0.923	0.456	0.479	0.83	0.414	0.626	0.4	0.825	0.698	0.575
PPAPRYHHSAV [LZTR1_Y119]	0.655	0.432	0.44	0.38	0.79	0.587	1.26	0.457	0.717	0.781	0.351	0.677	0.384	1.31	1.1	1.07

Sequence	phosphorylation enrichment (AncSZ)	phosphorylation enrichment (EPHB1)	phosphorylation enrichment (EPHB2)	phosphorylation enrichment (FGFR1)	phosphorylation enrichment (FGFR3)	phosphorylation enrichment (Fer (mouse))	phosphorylation enrichment (Fes)	phosphorylation enrichment (Fyn)	phosphorylation enrichment (Hck)	phosphorylation enrichment (Jak2)	phosphorylation enrichment (MERTK)	phosphorylation enrichment (c-Abl (mouse))	phosphorylation enrichment (c-Src)	SH2 binding enrichment (Grb2 SH2)	SH2 binding enrichment (SHP2-C SH2)	SH2 binding enrichment (c-Src SH2)
FSTSPYLLEAA [BRIP1_Y921_YF]	0.782	0.488	0.494	0.408	0.667	0.475	0.962	3.49	0.557	0.724	0.437	0.458	1.57	0.954	1.17	0.577
CTTIHYNYMCK [TP53_Y234_N239K]	0.736	0.54	0.562	0.547	0.61	0.5	0.826	0.482	0.473	0.674	0.456	0.551	0.371	1.45	1.64	3.07
CLMILHRLKER [PTPRR_Y249_Y249H]	1.05	0.496	0.569	0.436	0.575	0.516	1.19	0.464	0.426	1.03	0.437	0.548	0.395	1.04	1.35	0.799
ASNFNYFYHRE [KCNA1_Y413_V408A]	0.95	0.582	0.65	1.1	0.956	0.455	0.964	0.504	0.428	0.732	0.398	0.476	0.497	0.695	1.02	0.697
KKRSVYLKVLF [CC2D2A_Y683]	1.01	0.453	0.543	0.494	0.721	0.478	1.19	0.446	0.401	0.897	0.361	0.706	0.391	0.869	0.983	0.679
SYPREYGSQEG [RBM10_Y48]	0.756	0.515	0.487	0.47	0.519	0.414	0.826	0.424	0.477	0.673	0.409	0.586	0.413	0.852	0.76	0.546
ARGMEYLASQK [FGFR2_Y616]	0.576	0.376	0.461	0.443	0.433	0.37	0.657	0.534	0.385	0.563	0.394	0.669	0.398	0.763	0.755	0.369
RISGVYKLPPD [ANGPTL7_Y145]	0.9	0.511	0.586	0.623	0.801	0.5	0.852	1	0.572	0.785	0.719	0.838	0.827	1.02	0.857	0.525
GRPMDYQVSIT [OTOF_Y254]	0.812	0.517	0.624	0.473	0.51	0.508	0.775	0.403	0.417	0.727	0.416	0.662	0.449	0.767	0.656	0.456
CKQGKYLNWDA [ATM_Y54_S49C]	0.921	0.552	0.494	0.447	0.632	0.397	0.839	0.418	0.423	0.782	0.39	0.605	0.366	5.58	1.24	0.735
SLDLSYFHTSS [EMD_Y181_P183H_YF]	0.799	0.517	0.6	0.549	0.595	0.441	0.881	0.464	0.559	1.06	0.566	0.645	0.466	0.907	0.591	0.599
LSGFCYRLSDQ [PDCD6_Y124_G123C]	1.66	1.08	1.28	0.932	1.33	0.816	1.46	0.928	0.804	1.53	0.566	1.34	0.607	0.948	0.776	0.471
VNYGAYINDFN [GLB1_Y488_K493N]	1	0.737	1.09	0.451	0.616	0.462	1	0.87	0.533	0.748	0.469	0.703	0.675	9.16	1.05	6.95
TYGVVYRAKDK [CDK11B_Y453]	0.595	0.75	0.59	0.583	0.42	0.733	1.16	11.6	9.58	0.525	1.31	0.531	8.45	1.11	0.718	0.491
YLENYYDLEKD [MMP3_Y42_K45E]	1.76	5.81	3.24	7.06	5.26	0.781	1.47	4.51	1.63	1.15	0.752	0.957	2.29	0.769	0.557	0.985
QRPGLYDRPGA [HNRNPH2_Y210_P209L]	0.737	0.933	0.512	0.651	0.773	0.802	0.943	0.741	1.22	0.829	0.852	1.2	0.806	0.804	0.513	1.59
